Residue numbers refer to the chain shown, from its start.
B1: VHH 8A11 (VHH, not shown: small tags and cut ends)
VHH: EVQLVESGGGLVQAGGSLRLSCAASGRTFSSYAMGWFRQAPGKELEFVTAVSWSGGSTYYADSVKGRFTISRDSAKNTVYLQMNSLKPEDTAVYYCAAQSTIVEVTTLEAYDYWGQGTQVTVSS
B2: VHH 00027 (VHH, not shown: small tags and cut ends)
VHH: EVQLVESGGGLVQAGGSLRLSCAASGFTLDDYAIGWFRQAPGKEREGVSSIRDNDGSTYYADSVKGRFTISSDNDKNTVYLQMNSLKPEDTAVYYCAAVPAGRLRFGEQWYPLYEYDAWGQGTLVTVSS
B3: VHH 00042 (VHH, not shown: small tags and cut ends)
VHH: B2 VHH with A14P, D75S, K87R
B4: VHH 00025 (VHH, not shown: small tags and cut ends)
VHH: B2 VHH with S50T, N54S
B5: VHH 00041 (VHH, not shown: small tags and cut ends)
VHH: B2 VHH with A14P, D75A, K87R
B6: VHH 00043 (VHH, not shown: small tags and cut ends)
VHH: B2 VHH with A14P, S72R, D75A, K87R
B7: VHH 00048 (VHH, not shown: small tags and cut ends)
VHH: B2 VHH with N54S
B8: VHH 00052 (VHH, not shown: small tags and cut ends)
VHH: B2 VHH with A14P, K87R
B9: VHH 00053 (VHH, not shown: small tags and cut ends)
VHH: B2 VHH with A14P, S72R, K87R
B10: VHH 00054 (VHH, not shown: small tags and cut ends)
VHH: B2 VHH with A14P, S72R, D75S, K87R
B11: VHH 00055 (VHH, not shown: small tags and cut ends)
VHH: B2 VHH with D55G
B12: VHH 00908 (VHH, not shown: small tags and cut ends)
VHH: B2 VHH with A14P, F27I, D55G, D75S, K87R, F106Y, L113I
B13: VHH 00919 (VHH, not shown: small tags and cut ends)
VHH: B2 VHH with A14P, S50A, D55G, D75S, K87R
B14: VHH 00932 (VHH, not shown: small tags and cut ends)
VHH: B2 VHH with A14P, A24V, F27I, D55G, D75S, K87R, F106Y, L113I
B15: VHH 00933 (VHH, not shown: small tags and cut ends)
VHH: B2 VHH with A14P, F27I, S50A, D55G, D75S, K87R, F106Y, L113I
B16: VHH 00934 (VHH, not shown: small tags and cut ends)
VHH: B2 VHH with A14P, F27I, S50A, D53E, N54S, D55G, D75S, K87R, F106Y, L113I
B17: VHH 00935 (VHH, not shown: small tags and cut ends)
VHH: B2 VHH with A14P, F27I, S50A, D53S, N54S, D55G, D75S, K87R, F106Y, L113I
B18: VHH 00936 (VHH, not shown: small tags and cut ends)
VHH: B2 VHH with A14P, A24V, F27I, S50A, D55G, D75S, K87R, F106Y, L113I
B19: VHH 00937 (VHH, not shown: small tags and cut ends)
VHH: EVQLVESGGGLVQPGGSLRLSCAVSGITLDDYAIGWFRQAPGKEREGVSAIRESGGSTYYADSVKGRFTISSDNSKNTVYLQMNSLRPEDTAVYYCAAVPAGRLRYGEQWYPIYEYDAWGQGTLVTVSS
B20: VHH 00938 (VHH, not shown: small tags and cut ends)
VHH: B19 VHH with E53S
B21: VHH 00956 (VHH, not shown: small tags and cut ends)
VHH: B19 VHH with V24A, I27F, E53S, Y106F, I113L

Target: FLAG tagged human Ang2 (Alexis Biochemicals) (human) (UniProt O15123)
Sequence (O15123 19-496): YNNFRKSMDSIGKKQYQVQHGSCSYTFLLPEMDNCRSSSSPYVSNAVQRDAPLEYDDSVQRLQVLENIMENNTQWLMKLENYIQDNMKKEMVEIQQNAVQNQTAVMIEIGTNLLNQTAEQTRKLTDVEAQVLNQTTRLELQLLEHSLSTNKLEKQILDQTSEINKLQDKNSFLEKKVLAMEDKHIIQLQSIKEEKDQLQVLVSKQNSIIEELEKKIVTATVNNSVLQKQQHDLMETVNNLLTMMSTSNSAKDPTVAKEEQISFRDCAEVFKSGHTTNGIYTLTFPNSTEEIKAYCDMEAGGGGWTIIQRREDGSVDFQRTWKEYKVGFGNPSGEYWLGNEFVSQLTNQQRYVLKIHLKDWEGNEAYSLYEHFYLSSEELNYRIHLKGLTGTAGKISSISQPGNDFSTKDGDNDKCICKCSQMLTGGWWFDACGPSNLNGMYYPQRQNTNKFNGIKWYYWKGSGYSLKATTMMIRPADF
Assay: AlphaScreen competition, periplasmic extract, FLAG-hAng2 / biotin-hTie2/Fc

Binder	% inh
B1	57%

Target: FLAG-tagged human Ang2 (human) (UniProt O15123)
Sequence (O15123 19-496): as above
Assay: competition ELISA: FLAG-hAng2 binding to coated hTie2-Fc

Binder	IC50
B2	0.7 nM
B3	0.7 nM
B4	2.1 nM
B5	0.6 nM
B6	9.5 nM
B7	0.6 nM
B8	1 nM
B9	10.7 nM
B10	9.5 nM
B11	1.8 nM

Target: FLAG tagged human Ang2 (Alexis Biochemicals) (human) (UniProt O15123)
Assay: competition ELISA, FLAG-hAng2 (0.02 nM) on coated hTie2/Fc

Binder	IC50
B1	30.2 nM

Target: FLAG-tagged human Ang2 (human) (UniProt O15123)
Assay: competition ELISA: FLAG-hAng2 binding to coated hTie2-Fc
Remark: another data set of the same source

Binder	IC50
B2	0.672 nM
B3	0.646 nM
B12	0.045 nM
B13	0.9 nM
B14	0.049 nM
B15	0.056 nM
B16	0.064 nM
B17	0.068 nM
B18	0.045 nM
B19	0.054 nM
B20	0.05 nM
B21	1.3 nM

Target: FLAG tagged human Ang2 (Alexis Biochemicals) (human) (UniProt O15123)
Assay: competition ELISA, periplasmic extract, FLAG-hAng2 on hTie2/Fc

Binder	% inh
B1	67%

Target: FLAG-tagged recombinant human Ang1 (human) (UniProt Q15389)
Sequence (Q15389 20-498 limits assumed): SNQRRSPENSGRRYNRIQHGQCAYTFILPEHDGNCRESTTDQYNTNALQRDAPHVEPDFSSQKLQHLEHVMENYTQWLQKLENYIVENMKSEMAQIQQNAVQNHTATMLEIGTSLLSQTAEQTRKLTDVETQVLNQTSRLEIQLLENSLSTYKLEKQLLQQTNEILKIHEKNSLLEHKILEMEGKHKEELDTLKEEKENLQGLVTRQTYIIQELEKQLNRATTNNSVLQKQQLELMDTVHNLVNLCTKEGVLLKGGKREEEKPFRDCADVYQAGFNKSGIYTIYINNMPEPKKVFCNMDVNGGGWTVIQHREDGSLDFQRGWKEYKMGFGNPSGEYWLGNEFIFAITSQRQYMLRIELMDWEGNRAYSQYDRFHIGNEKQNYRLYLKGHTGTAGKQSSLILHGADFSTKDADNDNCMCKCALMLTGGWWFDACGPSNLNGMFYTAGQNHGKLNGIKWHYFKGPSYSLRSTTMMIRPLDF
Assay: ratio of IC50s in hAng1/hTie2 and hAng2/hTie2 competition ELISA

Binder	hAng1/hAng2 IC50 ratio	hAng1/hAng2 ratio
B12	> 192000	
B13		> 11200
B14	> 206000	
B15	> 180000	
B16	> 157000	
B17	> 146000	
B18	> 224000	
B19	> 186000	
B20	> 201000	
B21	> 7730	
